# Measured values from the Human Domainome abundance scans (Beltran et al. 2025).
# ± gives the uncertainty stated by the source.
# B1: POU domain, class 3, transcription factor 1, residues 247 to 324; numbered along this chain, Q03052 (parent)
# chain: EDAPSSDDLEQFAKQFKQRRIKLGFTQADVGLALGTLYGNVFSQTTICRFEALQLSFKNMCKLKPLLNKWLEETDSSS
# Variants of: B1
# Assay: abundance fitness (aPCA) (normalised: wild type 0, dead -1); higher = more abundant; growth selection in yeast, the domain comes from the species named
# Details: Homo sapiens
row,Variant,abundance fitness
1,EDAPSSDDLEQFAKQFKQRRIKLGFTQADVGLALGTLYGNVFSQTTICRFEAYQLSFKNMCKLKPLLNKWLEETDSSS,-0.112 ± 0.2
2,EDAPSSDDLEQFAKQFKQRRIKLGFTQADVGLALGTLYGNVFSQTTICRFEAFQLSFKNMCKLKPLLNKWLEETDSSS,-0.256 ± 0.14
3,EDAPSSDDLEQFAKQFKQRRIKLGFTQADVGLALGTLYGNVFSQTTICRFEAQQLSFKNMCKLKPLLNKWLEETDSSS,-0.009 ± 0.11
4,EDAPSSDDLEQFAKQFKQRRIKLGFTQADVGLALGTLYGNVFSQTTICRFEAPQLSFKNMCKLKPLLNKWLEETDSSS,-0.759 ± 0.29
5,EDAPSSDDLEQFAKQFKQRRIKLGFTQADVGLALGTLYGNVFSQTTICRFEAHQLSFKNMCKLKPLLNKWLEETDSSS,-0.111 ± 0.14
6,EDAPSSDDLEQFAKQFKQRRIKLGFTQADVGLALGTLYGNVFSQTTICRFEAVQLSFKNMCKLKPLLNKWLEETDSSS,-0.055 ± 0.05
7,EDAPSSDDLEQFAKQFKQRRIKLGFTQADVGLALGTLYGNVFSQTTICRFEAIQLSFKNMCKLKPLLNKWLEETDSSS,0.064 ± 0.11
8,EDAPSSDDLEQFAKQFKQRRIKLGFTQADVGLALGTLYGNVFSQTTICRFEADQLSFKNMCKLKPLLNKWLEETDSSS,-0.646 ± 0.25
9,EDAPSSDDLEQFAKQFKQRRIKLGFTQADVGLALGTLYGNVFSQTTICRFEARQLSFKNMCKLKPLLNKWLEETDSSS,-0.052 ± 0.045
10,EDAPSSDDLEQFAKQFKQRRIKLGFTQADVGLALGTLYGNVFSQTTICRFEAAQLSFKNMCKLKPLLNKWLEETDSSS,0.042 ± 0.054
11,EDAPSSDDLEQFAKQFKQRRIKLGFTQADVGLALGTLYGNVFSQTTICRFEASQLSFKNMCKLKPLLNKWLEETDSSS,0.051 ± 0.058
12,EDAPSSDDLEQFAKQFKQRRIKLGFTQADVGLALGTLYGNVFSQTTICRFEANQLSFKNMCKLKPLLNKWLEETDSSS,0.319 ± 0.17
13,EDAPSSDDLEQFAKQFKQRRIKLGFTQADVGLALGTLYGNVFSQTTICRFEATQLSFKNMCKLKPLLNKWLEETDSSS,-0.336 ± 0.11
14,EDAPSSDDLEQFAKQFKQRRIKLGFTQADVGLALGTLYGNVFSQTTICRFEAWQLSFKNMCKLKPLLNKWLEETDSSS,-0.478 ± 0.076
15,EDAPSSDDLEQFAKQFKQRRIKLGFTQADVGLALGTLYGNVFSQTTICRFEAKQLSFKNMCKLKPLLNKWLEETDSSS,-0.135 ± 0.092
16,EDAPSSDDLEQFAKQFKQRRIKLGFTQADVGLALGTLYGNVFSQTTICRFEAEQLSFKNMCKLKPLLNKWLEETDSSS,-0.494 ± 0.12
17,EDAPSSDDLEQFAKQFKQRRIKLGFTQADVGLALGTLYGNVFSQTTICRFEALALSFKNMCKLKPLLNKWLEETDSSS,-0.089 ± 0.063
18,EDAPSSDDLEQFAKQFKQRRIKLGFTQADVGLALGTLYGNVFSQTTICRFEALHLSFKNMCKLKPLLNKWLEETDSSS,-0.035 ± 0.14

row,Variant,abundance fitness
1,EDAPSSDDLEQFAKQFKQRRIKLGFTQADVGLALGTLYGNVFSQTTICRFEALRLSFKNMCKLKPLLNKWLEETDSSS,-0.195 ± 0.051
2,EDAPSSDDLEQFAKQFKQRRIKLGFTQADVGLALGTLYGNVFSQTTICRFEALKLSFKNMCKLKPLLNKWLEETDSSS,-0.098 ± 0.079
3,EDAPSSDDLEQFAKQFKQRRIKLGFTQADVGLALGTLYGNVFSQTTICRFEALPLSFKNMCKLKPLLNKWLEETDSSS,-0.62 ± 0.15
4,EDAPSSDDLEQFAKQFKQRRIKLGFTQADVGLALGTLYGNVFSQTTICRFEALILSFKNMCKLKPLLNKWLEETDSSS,-0.316 ± 0.14
5,EDAPSSDDLEQFAKQFKQRRIKLGFTQADVGLALGTLYGNVFSQTTICRFEALELSFKNMCKLKPLLNKWLEETDSSS,0.011 ± 0.064
6,EDAPSSDDLEQFAKQFKQRRIKLGFTQADVGLALGTLYGNVFSQTTICRFEALCLSFKNMCKLKPLLNKWLEETDSSS,-0.441 ± 0.15
7,EDAPSSDDLEQFAKQFKQRRIKLGFTQADVGLALGTLYGNVFSQTTICRFEALLLSFKNMCKLKPLLNKWLEETDSSS,-0.376 ± 0.085
8,EDAPSSDDLEQFAKQFKQRRIKLGFTQADVGLALGTLYGNVFSQTTICRFEALNLSFKNMCKLKPLLNKWLEETDSSS,-0.187 ± 0.096
9,EDAPSSDDLEQFAKQFKQRRIKLGFTQADVGLALGTLYGNVFSQTTICRFEALFLSFKNMCKLKPLLNKWLEETDSSS,-0.858 ± 0.34
10,EDAPSSDDLEQFAKQFKQRRIKLGFTQADVGLALGTLYGNVFSQTTICRFEQLQLSFKNMCKLKPLLNKWLEETDSSS,0.021 ± 0.085
11,EDAPSSDDLEQFAKQFKQRRIKLGFTQADVGLALGTLYGNVFSQTTICRFEVLQLSFKNMCKLKPLLNKWLEETDSSS,-1.02 ± 0.16
12,EDAPSSDDLEQFAKQFKQRRIKLGFTQADVGLALGTLYGNVFSQTTICRFENLQLSFKNMCKLKPLLNKWLEETDSSS,0.23 ± 0.11
13,EDAPSSDDLEQFAKQFKQRRIKLGFTQADVGLALGTLYGNVFSQTTICRFEPLQLSFKNMCKLKPLLNKWLEETDSSS,-0.929 ± 0.4
14,EDAPSSDDLEQFAKQFKQRRIKLGFTQADVGLALGTLYGNVFSQTTICRFERLQLSFKNMCKLKPLLNKWLEETDSSS,-0.001 ± 0.051
15,EDAPSSDDLEQFAKQFKQRRIKLGFTQADVGLALGTLYGNVFSQTTICRFEMLQLSFKNMCKLKPLLNKWLEETDSSS,-0.341 ± 0.12
16,EDAPSSDDLEQFAKQFKQRRIKLGFTQADVGLALGTLYGNVFSQTTICRFESLQLSFKNMCKLKPLLNKWLEETDSSS,0.036 ± 0.059
17,EDAPSSDDLEQFAKQFKQRRIKLGFTQADVGLALGTLYGNVFSQTTICRFEWLQLSFKNMCKLKPLLNKWLEETDSSS,-0.728 ± 0.19
